According to paper PMC5871871 (Autophagy, 2013):
Like-named read-outs stand apart in the source and are kept apart here.

Assays:
[1] = biological target: the molecule itself; assay: negative-stain single-particle EM
[2] = biological target: the molecule itself; assay: negative-stain single-particle EM; remark: listed apart in the source

B1: Atg17 (recombinant, His-MBP tag removed by TEV), in the untagged Atg17-Atg31-Atg29 complex (natural protein, S. cerevisiae, UniProt Q06410 1-417, looked up)
chain: MNEADVTKFVNNARKTLTDAQLLCSSANLRIVDIKKKLSSWQLSISKLNFLIVGLRQQGKFLYTILKEGIGTKLIQKQWNQAVLVVLVDEMKYWQYEITSKVQRLDGIVNELSISEKDDTDPSKLGDYISRDNVNLLNDKLKEVPVIERQIENIKLQYENMVRKVNKELIDTKLTDVTQKFQSKFGIDNLMETNVAEQFSRELTDLEKDLAEIMNSLTQHFDKTLLLQDKKIDNDEREELFKVVQGDDKELYNIFKTLHEVIDDVDKTILNLGQFLQAKIKEKTELHSEVSEIINDFNRNLEYLLIFKDISNLIDSFKNSCTQDIQTTKELCEFYDNFEESYGNLVLEAKRRKDVANRMKTILKDCEKQLQNLDAQDQEERQNFIAENGTYLPETIWPGKIDDFSSLYTLNYNVKNP
[1]
  stoichiometry N: 2

B2: His-MBP-tagged Atg17 (natural protein, S. cerevisiae, UniProt Q06410 1-417, looked up)
chain: B1 chain
[2]
  stoichiometry N: 2
